Data: the supplement of paper PMC10065799, “High-throughput profiling of sequence recognition by tyrosine kinases and SH2 domains using bacterial peptide display” (eLife, 2023)

Legend:
AncSZ = assay: phosphorylation enrichment, bacterial display (enrichment ratio); higher = better substrate or ligand; peptides without Tyr show the background
EPHB1 = EPHB1 (UniProt P54762); assay: as above
EPHB2 = EPHB2 (UniProt P29323); assay: as above
FGFR1 = FGFR1 (UniProt P11362); assay: as above
FGFR3 = FGFR3 (UniProt P22607); assay: as above
Fer (mouse) = assay: as above
Fes = Fes (UniProt P07332); assay: as above
Fyn = Fyn (UniProt P06241); assay: as above
Hck = Hck (UniProt P08631); assay: as above
Jak2 = Jak2 (UniProt O60674); assay: as above
MERTK = MERTK (UniProt Q12866); assay: as above
c-Abl (mouse) = assay: as above
c-Src = assay: as above
Grb2 SH2 = Grb2 SH2 (UniProt P62993); assay: SH2 binding enrichment of the phosphorylated peptide, bacterial display (enrichment ratio); higher = better substrate or ligand; peptides without Tyr show the background
SHP2-C SH2 = assay: as above
c-Src SH2 = assay: as above
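Wherever SH2 binding enrichment of the phosphorylated peptide, bacterial display is given: peptide library displayed on the E. coli surface as eCPX fusions, selected cells deep-sequenced, score is each peptide's frequency after selection divided by its frequency in the input.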
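Wherever phosphorylation enrichment, bacterial display is given: 11-residue human phosphosite peptides and single-mutation variants displayed on the E. coli surface, counted by deep sequencing, each peptide's frequency after selection divided by its frequency in the unselected input library; frequency after pTyr selection over input frequency; kinase dosed for 20-30% of maximal phosphorylation in three min.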

EPHB1, sequence (P54762 whole entry, looked up): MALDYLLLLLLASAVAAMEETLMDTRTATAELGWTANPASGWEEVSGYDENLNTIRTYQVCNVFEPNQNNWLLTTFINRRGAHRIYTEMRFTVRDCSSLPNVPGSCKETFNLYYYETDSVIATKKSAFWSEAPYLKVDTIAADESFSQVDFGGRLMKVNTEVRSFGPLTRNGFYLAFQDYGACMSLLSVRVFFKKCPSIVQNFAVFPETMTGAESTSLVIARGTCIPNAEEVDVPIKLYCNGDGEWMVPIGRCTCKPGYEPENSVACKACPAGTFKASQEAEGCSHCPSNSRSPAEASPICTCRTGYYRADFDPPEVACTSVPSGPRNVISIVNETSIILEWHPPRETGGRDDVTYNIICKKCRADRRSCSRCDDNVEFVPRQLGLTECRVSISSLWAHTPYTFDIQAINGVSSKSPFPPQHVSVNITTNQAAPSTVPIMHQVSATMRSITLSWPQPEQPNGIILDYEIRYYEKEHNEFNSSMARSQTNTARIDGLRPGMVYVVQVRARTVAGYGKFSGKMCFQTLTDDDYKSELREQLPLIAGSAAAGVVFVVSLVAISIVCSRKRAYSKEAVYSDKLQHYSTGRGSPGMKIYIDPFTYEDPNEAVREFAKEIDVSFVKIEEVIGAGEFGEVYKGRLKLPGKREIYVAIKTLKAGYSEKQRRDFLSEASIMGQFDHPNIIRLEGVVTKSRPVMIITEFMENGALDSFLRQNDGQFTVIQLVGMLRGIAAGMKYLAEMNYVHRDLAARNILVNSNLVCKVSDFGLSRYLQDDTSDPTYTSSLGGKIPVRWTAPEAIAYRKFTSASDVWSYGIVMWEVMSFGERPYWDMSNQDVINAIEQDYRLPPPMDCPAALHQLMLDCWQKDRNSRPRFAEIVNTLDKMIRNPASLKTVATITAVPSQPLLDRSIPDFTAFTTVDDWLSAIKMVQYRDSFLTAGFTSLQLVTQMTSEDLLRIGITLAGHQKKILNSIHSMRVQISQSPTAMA
EPHB2, sequence (P29323 whole entry, looked up): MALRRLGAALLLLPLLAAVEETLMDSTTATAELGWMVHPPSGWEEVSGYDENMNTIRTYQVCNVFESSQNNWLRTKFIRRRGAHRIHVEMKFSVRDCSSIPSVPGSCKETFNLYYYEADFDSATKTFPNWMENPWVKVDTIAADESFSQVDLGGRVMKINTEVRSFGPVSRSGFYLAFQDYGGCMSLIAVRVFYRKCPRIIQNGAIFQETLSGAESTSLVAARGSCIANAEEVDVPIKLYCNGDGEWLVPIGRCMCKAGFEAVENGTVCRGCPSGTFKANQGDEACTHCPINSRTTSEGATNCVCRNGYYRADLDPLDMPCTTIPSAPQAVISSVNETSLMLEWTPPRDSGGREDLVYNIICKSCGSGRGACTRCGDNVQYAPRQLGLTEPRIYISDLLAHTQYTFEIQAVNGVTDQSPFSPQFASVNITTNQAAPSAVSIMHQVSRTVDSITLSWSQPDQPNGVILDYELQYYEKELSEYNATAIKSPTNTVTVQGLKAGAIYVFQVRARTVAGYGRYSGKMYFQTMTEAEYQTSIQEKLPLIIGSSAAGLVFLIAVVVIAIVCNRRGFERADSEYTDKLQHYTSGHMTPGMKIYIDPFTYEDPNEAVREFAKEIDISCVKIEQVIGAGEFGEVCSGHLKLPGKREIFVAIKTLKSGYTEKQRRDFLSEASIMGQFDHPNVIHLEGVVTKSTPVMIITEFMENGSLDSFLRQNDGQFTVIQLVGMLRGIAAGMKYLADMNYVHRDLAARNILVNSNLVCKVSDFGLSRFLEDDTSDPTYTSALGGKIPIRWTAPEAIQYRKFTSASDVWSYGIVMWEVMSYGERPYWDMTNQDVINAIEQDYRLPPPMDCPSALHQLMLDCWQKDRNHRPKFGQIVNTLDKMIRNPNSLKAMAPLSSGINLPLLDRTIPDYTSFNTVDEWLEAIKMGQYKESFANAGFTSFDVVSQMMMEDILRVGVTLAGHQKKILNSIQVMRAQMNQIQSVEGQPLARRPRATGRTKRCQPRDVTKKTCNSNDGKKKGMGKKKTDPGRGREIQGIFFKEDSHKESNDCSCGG
FGFR1, sequence (P11362 whole entry, looked up): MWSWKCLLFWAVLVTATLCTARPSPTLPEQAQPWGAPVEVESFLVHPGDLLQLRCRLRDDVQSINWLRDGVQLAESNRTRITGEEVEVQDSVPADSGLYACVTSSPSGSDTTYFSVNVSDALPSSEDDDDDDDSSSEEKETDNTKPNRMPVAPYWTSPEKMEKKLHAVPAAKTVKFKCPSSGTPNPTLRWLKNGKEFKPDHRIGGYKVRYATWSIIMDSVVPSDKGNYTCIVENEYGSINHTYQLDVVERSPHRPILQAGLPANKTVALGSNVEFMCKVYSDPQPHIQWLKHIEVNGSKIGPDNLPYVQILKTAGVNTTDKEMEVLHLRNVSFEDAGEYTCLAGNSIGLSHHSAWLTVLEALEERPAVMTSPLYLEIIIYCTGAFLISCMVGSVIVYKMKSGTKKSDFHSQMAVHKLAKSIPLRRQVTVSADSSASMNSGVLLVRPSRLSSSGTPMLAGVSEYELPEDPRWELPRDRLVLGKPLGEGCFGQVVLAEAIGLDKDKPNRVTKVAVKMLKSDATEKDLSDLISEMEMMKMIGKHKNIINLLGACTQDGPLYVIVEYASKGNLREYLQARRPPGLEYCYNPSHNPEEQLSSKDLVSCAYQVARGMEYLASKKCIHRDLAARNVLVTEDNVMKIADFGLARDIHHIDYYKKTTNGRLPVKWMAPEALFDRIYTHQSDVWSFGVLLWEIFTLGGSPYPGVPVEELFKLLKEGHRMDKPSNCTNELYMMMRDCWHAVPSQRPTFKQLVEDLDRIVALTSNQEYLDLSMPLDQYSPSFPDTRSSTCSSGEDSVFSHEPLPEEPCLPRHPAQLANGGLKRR
MERTK, sequence (Q12866 whole entry, looked up): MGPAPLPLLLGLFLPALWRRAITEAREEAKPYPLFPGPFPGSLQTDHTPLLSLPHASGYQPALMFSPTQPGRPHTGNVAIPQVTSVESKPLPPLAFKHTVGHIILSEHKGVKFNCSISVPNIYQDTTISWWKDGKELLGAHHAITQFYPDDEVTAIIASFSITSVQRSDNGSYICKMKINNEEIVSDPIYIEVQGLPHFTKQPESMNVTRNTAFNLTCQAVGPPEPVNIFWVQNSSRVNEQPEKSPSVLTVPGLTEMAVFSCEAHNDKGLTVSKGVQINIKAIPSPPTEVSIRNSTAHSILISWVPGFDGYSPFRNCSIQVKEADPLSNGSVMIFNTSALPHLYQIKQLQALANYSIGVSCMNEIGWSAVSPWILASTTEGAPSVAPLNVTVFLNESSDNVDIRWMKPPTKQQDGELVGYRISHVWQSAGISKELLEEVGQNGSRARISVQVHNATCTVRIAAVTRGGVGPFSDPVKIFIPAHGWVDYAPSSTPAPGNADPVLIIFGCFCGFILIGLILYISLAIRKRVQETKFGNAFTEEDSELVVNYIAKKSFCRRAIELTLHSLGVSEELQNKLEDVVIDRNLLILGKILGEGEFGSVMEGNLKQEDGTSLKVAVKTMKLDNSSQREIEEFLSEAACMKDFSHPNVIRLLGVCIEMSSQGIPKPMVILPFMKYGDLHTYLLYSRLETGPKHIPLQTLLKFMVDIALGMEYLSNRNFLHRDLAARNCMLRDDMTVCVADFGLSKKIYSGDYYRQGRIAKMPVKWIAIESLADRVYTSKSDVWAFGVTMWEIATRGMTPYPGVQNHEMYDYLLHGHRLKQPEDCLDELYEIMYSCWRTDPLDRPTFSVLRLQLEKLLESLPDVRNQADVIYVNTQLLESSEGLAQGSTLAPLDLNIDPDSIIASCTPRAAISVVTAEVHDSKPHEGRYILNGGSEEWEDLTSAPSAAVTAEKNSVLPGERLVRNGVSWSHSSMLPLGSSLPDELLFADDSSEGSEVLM
FGFR3, sequence (P22607 whole entry, looked up): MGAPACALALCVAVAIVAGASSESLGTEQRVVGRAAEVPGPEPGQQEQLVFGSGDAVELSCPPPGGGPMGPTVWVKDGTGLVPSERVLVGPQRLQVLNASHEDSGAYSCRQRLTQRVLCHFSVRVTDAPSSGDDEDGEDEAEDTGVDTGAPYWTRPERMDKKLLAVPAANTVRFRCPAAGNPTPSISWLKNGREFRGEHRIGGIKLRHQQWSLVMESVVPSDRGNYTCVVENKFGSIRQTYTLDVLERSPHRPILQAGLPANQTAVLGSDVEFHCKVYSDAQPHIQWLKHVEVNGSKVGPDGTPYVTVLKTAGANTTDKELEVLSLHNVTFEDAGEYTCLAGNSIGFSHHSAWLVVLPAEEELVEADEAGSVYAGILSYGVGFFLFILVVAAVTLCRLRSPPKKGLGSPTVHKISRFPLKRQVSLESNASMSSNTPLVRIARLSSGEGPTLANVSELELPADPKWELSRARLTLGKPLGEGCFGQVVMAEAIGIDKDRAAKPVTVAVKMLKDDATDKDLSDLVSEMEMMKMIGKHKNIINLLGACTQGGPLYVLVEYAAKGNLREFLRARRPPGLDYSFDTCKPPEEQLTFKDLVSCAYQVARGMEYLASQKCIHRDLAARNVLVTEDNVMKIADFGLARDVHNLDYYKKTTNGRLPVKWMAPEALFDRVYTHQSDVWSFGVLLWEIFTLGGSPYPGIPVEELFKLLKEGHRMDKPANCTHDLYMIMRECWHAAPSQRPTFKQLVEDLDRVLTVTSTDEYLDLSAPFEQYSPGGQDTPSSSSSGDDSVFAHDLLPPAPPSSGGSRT
Grb2 SH2, sequence (P62993 whole entry, looked up): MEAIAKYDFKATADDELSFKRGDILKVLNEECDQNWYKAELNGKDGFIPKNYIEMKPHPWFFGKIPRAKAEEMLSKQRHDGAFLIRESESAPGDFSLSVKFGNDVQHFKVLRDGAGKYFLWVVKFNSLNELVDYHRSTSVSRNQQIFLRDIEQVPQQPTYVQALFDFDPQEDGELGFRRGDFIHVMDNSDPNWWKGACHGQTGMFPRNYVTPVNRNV

| Sequence | phosphorylation enrichment (AncSZ) | phosphorylation enrichment (EPHB1) | phosphorylation enrichment (EPHB2) | phosphorylation enrichment (FGFR1) | phosphorylation enrichment (FGFR3) | phosphorylation enrichment (Fer (mouse)) | phosphorylation enrichment (Fes) | phosphorylation enrichment (Fyn) | phosphorylation enrichment (Hck) | phosphorylation enrichment (Jak2) | phosphorylation enrichment (MERTK) | phosphorylation enrichment (c-Abl (mouse)) | phosphorylation enrichment (c-Src) | SH2 binding enrichment (Grb2 SH2) | SH2 binding enrichment (SHP2-C SH2) | SH2 binding enrichment (c-Src SH2) |
| --- | --- | --- | --- | --- | --- | --- | --- | --- | --- | --- | --- | --- | --- | --- | --- | --- |
| SHLSAYPALEG [CD5_Y465] | 0.611 | 0.351 | 0.398 | 0.404 | 0.411 | 0.409 | 0.591 | 0.375 | 0.372 | 0.483 | 0.324 | 0.531 | 0.343 | 0.897 | 0.687 | 0.618 |
| SHMVDYQPFRK [TEX37_Y25_YF] | 0.564 | 0.549 | 0.445 | 0.387 | 0.464 | 0.294 | 0.705 | 0.5 | 0.732 | 1.03 | 0.473 | 0.967 | 0.672 | 0.948 | 1.06 | 0.383 |
| SHSMRYFDTSV [HLA-C_Y31_A35S] | 0.581 | 0.482 | 0.448 | 0.47 | 0.463 | 0.37 | 0.576 | 0.432 | 0.393 | 0.543 | 0.386 | 0.455 | 0.432 | 0.932 | 0.885 | 0.367 |
| SHSMRYFSTAV [HLA-C_Y31_D33S] | 0.719 | 0.431 | 0.452 | 0.657 | 0.569 | 0.435 | 0.763 | 0.459 | 0.452 | 0.625 | 0.425 | 0.578 | 0.441 | 0.752 | 0.64 | 0.423 |
| SIIKDSFHRGA [GATM_Y203_Y203S] | 0.423 | 0.342 | 0.334 | 0.379 | 0.462 | 0.403 | 0.414 | 0.369 | 0.394 | 0.404 | 0.362 | 0.497 | 0.387 | 0.838 | 0.829 | 0.482 |
| SIKDKYVTAFY [KCNH2_Y611_L615F] | 0.578 | 0.488 | 0.439 | 0.483 | 0.475 | 0.401 | 0.67 | 0.428 | 0.414 | 0.523 | 0.358 | 0.391 | 0.383 | 0.607 | 0.525 | 0.461 |
| SILAVYSKDNY [PANK2_Y400] | 0.925 | 0.478 | 0.486 | 0.451 | 0.524 | 0.425 | 0.664 | 0.756 | 0.875 | 0.549 | 0.588 | 0.653 | 1.11 | 0.681 | 0.612 | 0.855 |
| SLEKSYELPDG [ACTA1_Y242] | 1.06 | 0.614 | 0.531 | 0.544 | 0.707 | 0.538 | 1.15 | 0.49 | 0.534 | 0.913 | 0.467 | 0.712 | 0.479 | 0.824 | 0.65 | 1.26 |
| SLEKSYKLPDG [ACTA1_Y242_E243K] | 0.658 | 0.408 | 0.434 | 0.467 | 0.455 | 0.429 | 0.757 | 0.397 | 0.393 | 0.649 | 0.462 | 0.574 | 0.41 | 0.889 | 0.592 | 0.469 |
| SLQAHYDTPRS [DOK7_Y405_R402Q] | 0.513 | 0.435 | 0.479 | 0.352 | 0.38 | 0.593 | 0.539 | 0.366 | 0.37 | 0.53 | 0.529 | 3.19 | 0.368 | 0.916 | 0.636 | 5.05 |
| SMAKFYASGIA [ACADSB_Y373_E376G_YF] | 0.738 | 0.344 | 0.485 | 0.428 | 0.561 | 0.369 | 0.636 | 0.461 | 0.469 | 0.677 | 0.464 | 0.51 | 0.352 | 0.701 | 1 | 0.359 |
| SNMPTYSGHFT [GRIN2A_Y1224] | 0.529 | 0.636 | 0.602 | 0.354 | 0.428 | 3.39 | 0.557 | 1.71 | 1.47 | 0.653 | 0.74 | 0.457 | 2.04 | 0.68 | 0.88 | 0.414 |
| SNNFIYTTLGV [FAM83B_Y639_K640T_YF] | 0.899 | 2.23 | 1.39 | 1.22 | 1.16 | 2.67 | 0.885 | 7.76 | 7.53 | 0.666 | 6.9 | 1.56 | 5.65 | 0.936 | 0.927 | 0.72 |
| SNNYIYKTLGV [FAM83B_Y639] | 0.523 | 0.48 | 0.328 | 0.484 | 0.546 | 0.354 | 0.58 | 0.467 | 0.549 | 0.46 | 0.357 | 0.494 | 0.476 | 1.01 | 0.968 | 0.393 |
| SPFMLYQFLKQ [RPAP3_Y567_D564Y_YF] | 1.15 | 4.55 | 2.73 | 1.14 | 0.99 | 3.37 | 1.34 | 0.621 | 4.2 | 1.07 | 4.11 | 0.938 | 0.867 | 1.41 | 1.67 | 1.07 |
| SPRDTYSDRSG [CTPS1_Y567] | 0.494 | 0.298 | 0.473 | 0.382 | 0.438 | 0.369 | 0.572 | 0.443 | 0.507 | 0.521 | 0.322 | 0.608 | 0.375 | 0.76 | 0.503 | 0.479 |
| SRASFYRKGGC [ALK_Y1283_Y1278S_YF] | 0.702 | 0.431 | 0.467 | 0.381 | 0.496 | 0.476 | 0.627 | 0.433 | 0.477 | 0.615 | 0.567 | 0.529 | 0.575 | 0.674 | 0.548 | 0.433 |
| SREALYNEMDP [CACNA1A_Y794] | 1.41 | 0.735 | 0.693 | 0.692 | 0.896 | 0.731 | 1.24 | 0.685 | 0.834 | 1.14 | 2.36 | 0.852 | 0.869 | 0.913 | 0.489 | 1.28 |
| SRLSAYPALEG [CD5_Y465_H461R] | 0.723 | 0.348 | 0.495 | 0.486 | 0.469 | 0.391 | 0.803 | 0.425 | 0.436 | 0.674 | 0.496 | 0.471 | 0.533 | 0.899 | 0.69 | 0.437 |
| SSDKVYAHQMV [MLH1_Y379] | 0.551 | 0.404 | 0.401 | 0.379 | 0.416 | 0.494 | 0.573 | 0.538 | 0.458 | 0.431 | 0.476 | 0.537 | 0.514 | 0.792 | 0.594 | 0.44 |
| SSEFHYVGGFF [CTSC_Y347_YF] | 0.949 | 0.646 | 0.532 | 0.572 | 0.813 | 0.558 | 1.16 | 0.516 | 0.544 | 0.904 | 0.428 | 0.897 | 0.707 | 0.688 | 0.607 | 0.376 |
| SSFPDYLAAVD [GLB1_Y154_D151Y_YF] | 1.31 | 0.604 | 0.603 | 0.676 | 0.761 | 0.66 | 1.09 | 0.586 | 0.576 | 0.925 | 0.422 | 0.703 | 0.497 | 0.816 | 2.81 | 0.509 |
| SSMIDYNTLEK [MYOC_Y479_P481T] | 0.792 | 0.428 | 0.506 | 0.401 | 0.568 | 0.453 | 0.748 | 0.452 | 0.482 | 0.904 | 0.408 | 0.486 | 0.401 | 0.643 | 0.433 | 0.607 |
| SSPVLYLSPET [TJP1_Y931_P930L] | 1.21 | 1.14 | 0.815 | 0.663 | 0.713 | 0.459 | 0.833 | 0.534 | 0.626 | 1.02 | 0.782 | 1.61 | 0.469 | 0.882 | 0.901 | 0.442 |
| SSSGGYGGGYG [KRT19_Y61_A60G] | 0.456 | 0.326 | 0.337 | 0.408 | 0.335 | 0.333 | 0.534 | 0.352 | 0.379 | 0.479 | 0.342 | 0.374 | 0.377 | 0.924 | 0.62 | 0.462 |
| STQAHYRLSAF [ADAMTS9_Y100_S96T] | 0.582 | 0.395 | 0.381 | 0.44 | 0.536 | 0.386 | 0.63 | 0.461 | 0.456 | 0.487 | 0.409 | 0.427 | 0.323 | 0.759 | 0.859 | 0.513 |
| SVEVPYEPPEV [TP53_Y220_V217E] | 1.44 | 0.579 | 0.675 | 0.622 | 0.907 | 0.572 | 1.4 | 0.603 | 0.596 | 1.41 | 0.564 | 1.08 | 0.549 | 0.977 | 0.797 | 0.591 |
| SVFNNYIQTLG [CTNND1_Y174_S171F] | 0.705 | 0.835 | 0.418 | 0.585 | 0.528 | 0.391 | 0.678 | 0.442 | 0.463 | 0.775 | 0.411 | 0.557 | 0.402 | 1.05 | 0.917 | 0.739 |
| SVIKEYQIRQV [USH2A_Y3623_G3618S] | 0.648 | 0.505 | 0.346 | 0.377 | 0.509 | 0.415 | 0.68 | 0.352 | 0.443 | 0.567 | 0.328 | 0.409 | 0.381 | 0.88 | 0.653 | 0.472 |
